Test results: US20140010886A1, “COMPOSITIONS COMPRISING SACCHARIDE BINDING MOIETIES AND METHODS FOR TARGETED THERAPY” (GEORGIA TECH RESEARCH CORPORATION, priority 2011, published 2014)

B1: PNA: lectin peanut agglutinin, recognizes the glycan moiety GalNAc (protein, UniProt P02872 24-273, looked up)
Galactose-binding lectin: AETVSFNFNSFSEGNPAINFQGDVTVLSNGNIQLTNLNKVNSVGRVLYAMPVRIWSSATGNVASFLTSFSFEMKDIKDYDPADGIIFFIAPEDTQIPAGSIGGGTLGVSDTKGAGHFVGVEFDTYSNSEYNDPPTDHVGIDVNSVDSVKTVPWNSVSGAVVKVTVIYDSSTKTLSVAVTNDNGDITTIAQVVDLKAKLPERVKFGFSASGSLGGRQIHLIRSWSFTSTLITTTRRSIDNNEKKIMNMASA
B2: ECL: erythrina cristagalli lectin, recognizes the glycan moiety GlcNAc (protein, listed as Homo sapiens)
chain: VETISFSFSEFEPGNNDLTLQGAAIITQSGVLQLTKINQNGMPAWDSTGRTLYTKPVHIWDMTTGTVASFETRFSFSIEQPYTRPLPADGLVFFMGPTKSKPAQGYGYLGVFNNSKQDNSYQTLAVEFDTFSNPWDPPQVPHIGIDVNSIRSIKTQPFQLDNGQVANVVIKYDASSKILLAVLVYPSSGAIYTIAEIVDVKQVLPEWVDVGLSGATGAQRDAAETHDVYSWSFHASLPETND

Experiments:
[1] = test system: CD133+ GBM-CSCs; assay: Lectin panel labeling of CD133+ GBM-CSCs during differentiation (flow cytometry); type: binding, human; conditions: for recognition of GBM-CSCs by lectin after differentiation: after 12 days of differentiation; for recognition of undifferentiated GBM-CSCs by lectin: day 1, undifferentiated CD133+ GBM-CSCs
Protocol: The fact that lectin moieties recognize carbohydrates located on the surface of cells makes them a great tool to identify changes in glycosylation patterning during differentiation. We used a panel of 20 lectins to study the patterning of CD133^+ GBM-CSCs surface glycosylation during differentiation (Table 1). Neurospheres derived from CD133^+ GBM-CSCs were grown as mentioned above and were plated onto polyornithin and laminin coated tissue culture grade plastics. Within 10 hours the neuroshperes adhered and neurite formations were observed. Differentiation continued for 12 days, and harvested cells (day 1 and day 12) were labeled with our panel of lectins (FIG. 2A). […] Furthermore, the recognition and decrease in recognition of GalNAc and GlcNAc coincide with the expression of GBM-CSC marker CD133-glycosylation (CD133-G) and general stem cell markers OCT 4 and SOX2 (FIG. 3C). OCT 4 and SOX2 have been well studied in GBMs and are accepted indicators of sternness in GBM cell lines.

[2] = test system: DBA positive sorted cells (CTB-1 GBM-CSCs); assay: Lectin reactivity of DBA positive sorted GBM-CSCs (flow cytometry); type: binding, human; conditions: for lectin reactivity of DBA positive sorted cells: day 1; for lectin reactivity of DBA positive sorted cells by day 12: day 12 of differentiation
Text: The percent of cells with specific carbohydrate expression as determined by flow cytometry using 8 different lectins. The data are means+/−SD of 3 independent assays of CTB-1 GBM-CSCs. CTB-1 cell line was stained with CD133, OCT4, and SOX2 antibody in addition to lectin staining Statistical significance (p≦0.05) is indicated by asterisk.
DBA lectin positive cells made up less than 1% of the total population and phenotypically appeared to proliferate at a much slower rate than the DBA negative population. […] Increased proliferation in DBA negative populations can be visualized via microscopy at day 1 and day 12 (FIG. 7). At day 12 the DBA negative population appears to be denser than the DBA positive population (FIG. 7), however, both populations are able to produce GFAP positive cells (Astrocytes) identical to the CD133 positive sorted cells (FIG. 7). […] DBA negative sorted cells contradict the aforementioned, and show low reaction towards GalNAc and GlcNAc recognizing lectins and this continues to decrease by day 12 (FIG. 8B). Con A remains high throughout in both populations and serves as a positive control (FIGS. 8A and 8B). However, GBM-CSC marker CD133-G and general stem cell markers OCT 4 and SOX 2 are high in the DBA positive sorted cells, and similar to DBA reactivity, decreases substantially by day 12 of differentiation (FIG. 8A). However, in the DBA negative population these stem cell markers uniformly are low at day one and are almost non-existent by day 12 (FIG. 8A). Until now CD133 has been considered the only marker for CSCs derived from GBM brain tumors. However, using cell sorting technology, DBA lectin, which recognizes GalNAc, we were able to separate CD133^+ cells from CD133− cells.

Row | Molecule | recognition of GBM-CSCs by lectin after differentiation [1] | recognition of undifferentiated GBM-CSCs by lectin [1] | lectin reactivity of DBA positive sorted cells [2] | lectin reactivity of DBA positive sorted cells by day 12 [2]
1 | SBA: lectin soybean agglutinin, recognizes the glycan moiety GalNAc | markedly decreased | highly recognized | high reactivity | decrease
2 | B1 | markedly decreased | highly recognized | high reactivity | decrease
3 | B2 | noticeably decreased | highly recognized | highly reactive | decreased
